Results as given in patent US7838495B2, “Compositions and methods of use of EPB1, and ErbB3 binding protein” (University of Maryland, Baltimore, priority 2007, dated 2010).
Entries after “also recorded” stand apart in the source; their conditions may differ.

Experiments:
C81 cells = test: Growth of C81 EBP1 transfectants (monolayer, soft agar, androgen-depleted media); assay type: cell-based, human
Description: FIG. 4A-C. EBP1 restoration ameliorates the hormone refractory phenotype A. (Left panel) Growth in monolayer culture. Equal numbers (5×10^4) of vector or EBP1 stably transfected cells were plated at Day 0 in complete media and viable cell numbers determined at the indicated times. Each point represents mean±S.E. of 3 wells. Representative of 3 experiments (Right panel). Colony growth in soft agar. C81 cells stably transfected with either pcDNA or EBP1 were plated in soft agar at the cell densities indicated and colony numbers assessed at Day 10. Each point represents mean±S.E. of 3 dishes. Data is representative of 3 experiments. B. (Left Panel) Response of EBP1 and vector transfected C81 cells to dihydrotestosterone (DHT). EBP1 and vector control C81 transfected cells and early passage LNCaP cells were plated in complete media at 5×10^3 cells/well in 96 well plates for one day. The next day, cells were switched to steroid reduced medium for two days as described in the Materials and Methods. DHT was then added at the indicated concentrations. Cells were refed media every 3 days. Total cell numbers were determined seven days later by MTT assays. Each point represents mean±S.E. of 6 wells. Data is representative of two experiments. (Right Panel) Effect of Bicalutamide on DHT stimulated growth. Cells were plated as described in the Materials and Methods. After 2 days in steroid reduced medium, cells were fed with fresh steroid reduced medium with or without 10 μM bicalutamide (Casodex) in the presence or absence of 10 nM DHT. Total cell numbers were assessed 7 days later by MTT assay. Cells were refed media every 3 days. The data shown are mean±S.E. of six wells. Similar results were found in 2 independent experiments. C. EBP1 expression sensitizes C81 cells to chemotherapeutic drugs. […] Total cell numbers were determined by MTT assays 5 days later. […]
Western Blot Analysis. […] For soft agar growth assays, increasing concentrations of cells (as indicated) were plated in 35 mm Petri dishes in 0.3% agar in complete media and colonies were counted after 10 days of incubation (21). […]

MCF-7 cells = test: Western blot of ErbB2 and ErbB3 in MCF-7 EBP1 transfectants; assay type: cell-based, human; settings: MCF-7-EBP1 transfectants vs vector controls
Description: FIG. 10A-C. Effect of ectopic expression of EBP1 on ErbB3 or ErbB2 protein levels. (A and B) Lysates of logarithmically growing MCF-7 vector control cells (CMV) or EBP1 transfected cells (Ebp1) or (C) AU565 cells were blotted with antibodies for ErbB3 or ErbB2 and actin as indicated. Data are representative of three experiments.
2.5. Western blot analysis. Total cell extracts were prepared by direct lysis of cells with lysis buffer [50 mM Tris-HCl (pH 7.4), 1 mM EDTA, 250 mM NaCl, 1% Triton X-100, 0.5 mM DTT, and 1× Complete™ protease inhibitor]. Protein concentrations were measured using a detergent compatible kit (Bio-Rad). Proteins (30 lg per well) were resolved by SDS-PAGE, transferred to PVDF membranes, and immunoblotted as described. […] Images were quantified using IMAGE-J software (NIH). […] Relative cell numbers were determined 4 days later using a Promega Proliferation Reagent as per manufacturer's instructions with absorbance being read at 490 nm using a Dynex plate reader. […] Data were analyzed using a two-tailed Students t-test and a p <0.05 was deemed statistically significant. […]

B1: EBP1: ErbB3 binding protein (SEQ ID NO: 2), AR corepressor, here ectopically expressed in cancer cells by stable transfection of an expression plasmid (protein, listed as Homo sapiens)
chain: MSGEDEQQEQTIAEDLVVTKYKMGGDIANRVLRSLVEASSSGVSVLSLCEKGDAMIMEETGKIFKKEKEMKKGIAFPTSISVNNCVCHFSPLKSDQDYILKEGDLVKIDLGVHVDGFIANVAHTFVVDVAQGTQVTGRKADVIKAAHLCAEAALRLVKPGNQNTQVTEAWNKVAHSFNCTPIEGMLSHQLKQHVIDGEKTIIQNPTDQQKKDHEKAEFEVHEVYAVDVLVSSGEGKAKDAGQRTTIYKRDPSKQYGLKMKTSRAFFSEVERRFDAMPFTLRAFEDEKKARMGVVECAKHELLQPFNVLYEKEGEFVAQFKFTVLLMPNGPMRITSGPFEPDLYKSEMEVQDAELKALLQSSASRKTQKKKKKKASKTAENATSGETLEENEAGD
modifications: FLAG tag
decrease of colony growth in soft agar (C81 cells; C81, highest cell concentration tested): approximately 50% | growth rate in complete media (C81 cells; C81 EBP1 transfectants vs vector control, p<0.05): significantly decreased | growth in the absence of androgens relative to vector controls (C81 cells; C81 EBP1 transfectants, androgen depleted media): reduced to one third; also recorded: reduced by ⅔ | ErbB2 protein level (MCF-7 cells): significantly decreased | ErbB3 protein level (MCF-7 cells): no change
